For assay [1], the target named is His6-tagged nucleocapsid (N) protein of tomato spotted wilt virus (TSWV) (tomato spotted wilt virus (Yunnan isolate)). The assay can be described thus: cross-linking; 30 ug purified N protein with increasing glutaraldehyde, 37 °C for 5 min, quenched with Tris-HCl pH 7.5; 5-20% SDS-PAGE, Coomassie staining; self-association.
In assay [2] the target is free-tag TSWV N protein (tomato spotted wilt virus (Yunnan isolate)). The assay can be described thus: native gel or EMSA; 4-16% discontinuous blue native PAGE at 4 °C, cathode buffer 100 mM histidine pH 8.0 with 0.002% Coomassie G-250; purified N protein without PEI treatment (carries E. coli RNA); self-association. On the technique in general: In EMSA bound probe runs differently from free probe, usually more slowly.

We go through 2 substances from paper PMC4326804.

Values joined by “and” are separate entries in the source; they are usually repeats but may differ in a detail not shown here. Equal entries are not always repeated.

Broadly, the stoichiometry N is a count of units in the complex or per binding partner. On to “His6-tagged nucleocapsid (N) protein of tomato spotted wilt virus (TSWV) (natural protein)”, for which the stoichiometry N in assay [1] was > 3 and 2 and 3.

For “free-tag TSWV N protein (natural protein)”, the stoichiometry N in assay [2] was 2 and 3 and 4.
